{"source": "paper PMC12462528", "about": "“Molecular basis of ParA ATPase activation by the CTPase ParB during bacterial chromosome segregation” (Nature Communications, 2025)", "proteins": {"B1": {"name": "ParA-D60A (natural protein, Myxococcus xanthus DK1622, UniProt Q1CVJ3 1-283, looked up)", "chain": "MHCITRGALAYGRGERGWATVGRIICISNQKGGVGKTTTAINLAASLASAERRTLLVDMAPQGNAGSGLGIKQDNITGTIYEALLNDRPIQELLHPTELRYLQVVPATPDLTGAEVELVNQDNREFRLRDALRPLAAEYDYIIIDCPPSLGLLTLNALAAADSVLIPLQCEYYALEGLSQLTHTIDLVKQGLNPDLKMEGILLTMFDSRANIAHQVVEEVRGYFKKQVFEVIVPRNVRLSECPSFGKPIILYDIKSKGCESYLALGRELMKRDTPKSPRRRVA", "notes": "ParA of Myxococcus xanthus DK1622 lacking the catalytic aspartic acid D60; also called ATPase-deficient ParA variant; source: E. coli Rosetta(DE3)pLysS, purified (as His6-ParA)"}}, "target": "the molecule itself", "assay": "HDX-MS; 50 µM ParA or ParA-D60A with 1 mM ATP, with or without 1 mM ParB_(1-20) and/or 1 mg/mL salmon sperm DNA; 25 °C (Datasets 1 and 2)"}
{"protein": "B1", "values": [{"measurement": "binding result", "result": "binds"}]}
